Measurements from publication PMC7219239, “Folding-Based Electrochemical Aptasensor for the Determination of β-Lactoglobulin on Poly-L-Lysine Modified Graphite Electrodes”.

Molecular target: T1, beta-lactoglobulin B (β-LG) (Bos taurus? (cow's milk), UniProt P02754 17-178)
T1 sequence: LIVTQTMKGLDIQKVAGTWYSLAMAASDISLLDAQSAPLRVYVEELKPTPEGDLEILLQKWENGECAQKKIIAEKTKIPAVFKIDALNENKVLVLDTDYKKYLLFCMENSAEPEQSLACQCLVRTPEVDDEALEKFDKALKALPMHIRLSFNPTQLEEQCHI
Test: electrochemical folding-based aptasensor (DPV, MB signal-on); PBS-based buffer without MgCl2; 45 min incubation; linear 0.1-10 ng/mL, LOD 0.09 ng/mL; no Kd in the material; Measurement in PBS-based buffer without MgCl2 (wash buffer 0.1 M PBS, 150 mM NaCl, pH 7.4), 45 min; aptamer immobilized at 1 µM in 50 mM Tris, 150 mM NaCl, 2 mM MgCl2, pH 7.4; temperature not stated
Settings: protein: commercial; chain copies: 2; label: methylene blue (3')

B1: anti-β-LG aptamer, thiolated, MB-tagged (ssDNA)
DNA: CGACGATCGGACCGCAGTACCCACCCACCAGCCCCAACATCATGCCCATCCGTGTGTG
modifications: 5'-thiol (HS); 3'-methylene blue
Q: Does B1 bind?
A: binds
